2 molecules from US10280218B2, “Antibodies binding to BMP4, and uses thereof” (ACADEMISCH MEDISCH CENTRUM, priority 2014, dated 2019) can be followed below.

Data set [1] concerns mouse intestinal organoids. As to the kind of experiment: Ex vivo mouse intestinal organoid culture (number and growth of organoids). Format: cell-based. As to conditions: VHHs in place of Fc-Noggin, 5 days. How it is done:
Finally, the VHHs were tested in an intestinal organoid culture system for their ability to neutralize the function of BMP4 ex vivo. Inhibition of BMP activity is one of the requirements to maintain Intestinal Stem Cells in vitro cultured as “organoids” that mimic crypt-villus structures and is usually provided by the addition of Noggin to the media. Murine small intestine organoids were cultured in the presence or absence of the VHH biheads and compared to Noggin. To precisely determine which BMPs are present in these cultures, BMP secretion was measured in the conditioned media of intestinal organoids grown without Noggin for three days. Whereas BMP2, BMP4 and BMP6 could be detected by ELISA (FIG. 14A), BMP5 levels were negative, most likely due to the low sensitivity of the ELISA assay (>250 pg/mL), and not due to the lack of BMP5 in these cultures. Indeed, analysis of the protein lysates of these organoids, detected the presence of BMP2, BMP4, BMP5 and BMP6 (FIG. 14B). Next, freshly isolated crypts from murine small intestines were cultured with the VHHs and tested for their ability to provide endogenous BMP inhibition and to sustain organoid cultures ex vivo. […]
Organoids were cultured as previously described (Sato et al., 2009). […] Crypts were counted and resuspended in matrigel. […]

For data set [2], the target named is T1, BMP4 (Homo sapiens, UniProt P12644).
T1 sequence (P12644 293-408): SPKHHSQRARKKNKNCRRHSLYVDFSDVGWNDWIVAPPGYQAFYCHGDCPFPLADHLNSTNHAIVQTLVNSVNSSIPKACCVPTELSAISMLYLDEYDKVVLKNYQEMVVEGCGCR
As to the kind of experiment: BMP specificity of VHH antibodies (summary of binding and inhibition of BMP function). The following applies: summary of SPR and functional experiments. Further details: purchased R&D systems; key: ●▪: Binding and inhibition of BMP function.; ●□: Binding, but no inhibition.; ○: No binding. An excerpt: Thus, we have generated several VH Hs that can be classified into four groups (Table 3): BMP4, BMP2/4, BMP2/4/5 and BMP2/4/5/6-specific.

Data set [3] has as its system HT29 cells. As to the kind of experiment: Chemosensitivity / cell viability (Presto Blue). Format: cell-based, human. The procedure:
We wanted to determine whether this effect could be attributable to BMP4 that is being secreted by the cancer cells, and if therefore, could be inhibited by our BMP4-specific VHHs. A panel of colorectal cancer cells was tested for the presence of active BMPs in their conditioned media (FIG. 28A). To that end, the C2C12 cells were cultured with supernatants from different cancer cell lines. When normalized for the BMPs present in normal fetal calf serum, we found a high variability in BRE-luciferase activity across cell lines. […] One of those cell lines, HT29, was used to test the effect of BMP4 inhibition in terms of proliferation. No effect was observed when cultured with the VHHs or Noggin alone (data not shown).
HT29 cells were plated in 96-well plates at a density of 10,000 cells per well. […] The VHHs or Noggin were added at the same time at a concentration of 500 ng/ml. Cell viability was measured by adding the Presto Blue Reagent (Invitrogen) for 2 hours at 37° C., after which absorbance was measured at […].

B1: C8E7: E7 linked to C8, hetero-dimer VHH bihead (protein)
chain: EVQLVESGGGLVQAGGSLRLSCAASGRTFRINDMGWYRQAPGKSRDMVARITSGGNTNYADSVKGRFTISRDNAKNTVYLQMNSLKPEDTAVYYCNADGLRFDSTRYRPFDSWGQGTQVTVSSGGGGSGGGGSEVQLVESGGGLVQAGGSLRLSCAASGSIRGFVAMAWYRQAPGKQREWVATVTNGGTLYGDSVKGRFTGSRDNAKNTVYLQMNSLKPEDTAVYYCALRQIGASGYDYWGQGTQVTVSS
On to B1, for which, in data set [1], the “maintenance of organoid culture growth / stem cell proliferation” value is given as “able to maintain culture growth of organoids”. Besides, the “BMP4: binding and inhibition of BMP function” value in data set [2] is reported as “●▪”.

B2: hNoggin (protein)
chain: QHYLHIRPAPSDNLPLVDLIEHPDPIFDPKEKDLNETLLRSLLGGHYDPGFMATSPPEDRPGGGGGAAGGAEDLAELDQLLRQRPSGAMPSEIKGLEFSEGLAQGKKQRLSKKLRRKLQMWLWSQTFCPVLYAWNDLGSRFWPRYVKVGSCFSKRSCSVPEGMVCKPSKSVHLTVLRWRCQRRGGQRCGWIPIQYPIISECKCSC
Turning to B2, in data set [3] (500 ng/ml, 48 hours), the “chemosensitivity (cell viability) in combination with Carboplatin, 5′FU or Oxaliplatin” value is “not as effective as observed for C4C4 or C8C8”. In addition, the “effect on HT29 proliferation, alone” value in data set [3] (without chemotherapy (data not shown)) is given as “No effect”.
